What was measured:
[1] = target: T1, KOD-H4 DNA polymerase V93Q;I114T;D141A;E143A;S383K;K429G;F445L;A485L;Y493V;Y496H;Y497M;Y499F;A500E;R501N;I521L;E664K;K726R;N735K (Thermococcus kodakarensis KOD?) (UniProt D0VWU9); assay: fluorescence polarization; details: template fully HNA (1,5-anhydrohexitol nucleic acid); primer DNA; FP: 1x ThermoPol (20 mM Tris-HCl, 10 mM (NH4)2SO4, 10 mM KCl, 2 mM MgSO4, 0.1% Triton X-100, pH 8.8), 25 C, 20 min, 5 nM labeled primer
T1 sequence: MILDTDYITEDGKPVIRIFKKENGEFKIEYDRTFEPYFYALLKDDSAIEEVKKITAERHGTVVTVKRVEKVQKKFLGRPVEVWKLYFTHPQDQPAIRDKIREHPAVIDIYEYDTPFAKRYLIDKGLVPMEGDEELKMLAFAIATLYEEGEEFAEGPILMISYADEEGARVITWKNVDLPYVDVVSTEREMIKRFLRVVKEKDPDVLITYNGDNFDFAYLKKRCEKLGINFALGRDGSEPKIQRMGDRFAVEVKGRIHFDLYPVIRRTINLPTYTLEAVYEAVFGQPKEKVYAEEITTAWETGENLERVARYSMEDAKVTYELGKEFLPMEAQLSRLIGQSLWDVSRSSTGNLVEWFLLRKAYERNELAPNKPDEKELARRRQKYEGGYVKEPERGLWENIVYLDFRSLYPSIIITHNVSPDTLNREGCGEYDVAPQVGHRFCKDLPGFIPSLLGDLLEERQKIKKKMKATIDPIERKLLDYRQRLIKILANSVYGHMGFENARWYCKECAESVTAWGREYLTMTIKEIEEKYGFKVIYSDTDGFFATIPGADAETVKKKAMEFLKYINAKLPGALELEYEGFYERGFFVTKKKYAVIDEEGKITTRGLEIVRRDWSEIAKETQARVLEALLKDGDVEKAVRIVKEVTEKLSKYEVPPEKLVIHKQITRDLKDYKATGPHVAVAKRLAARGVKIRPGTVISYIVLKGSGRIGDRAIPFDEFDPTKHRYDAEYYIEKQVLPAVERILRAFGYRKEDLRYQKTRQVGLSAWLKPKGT

[2] = target: T2, Tgo-H4 (RT-H4) DNA polymerase V93Q;I114T;D141A;E143A;S383K;E429G;F445L;A485L;F493V;Y496H;Y497M;Y499F;A500E;K501N;I521L;E664K;K726R;N735K (UniProt P56689); assay: fluorescence polarization; details: template fully HNA (1,5-anhydrohexitol nucleic acid); primer DNA; FP: 1x ThermoPol (20 mM Tris-HCl, 10 mM (NH4)2SO4, 10 mM KCl, 2 mM MgSO4, 0.1% Triton X-100, pH 8.8), 25 C, 20 min, 5 nM labeled primer
T2 sequence: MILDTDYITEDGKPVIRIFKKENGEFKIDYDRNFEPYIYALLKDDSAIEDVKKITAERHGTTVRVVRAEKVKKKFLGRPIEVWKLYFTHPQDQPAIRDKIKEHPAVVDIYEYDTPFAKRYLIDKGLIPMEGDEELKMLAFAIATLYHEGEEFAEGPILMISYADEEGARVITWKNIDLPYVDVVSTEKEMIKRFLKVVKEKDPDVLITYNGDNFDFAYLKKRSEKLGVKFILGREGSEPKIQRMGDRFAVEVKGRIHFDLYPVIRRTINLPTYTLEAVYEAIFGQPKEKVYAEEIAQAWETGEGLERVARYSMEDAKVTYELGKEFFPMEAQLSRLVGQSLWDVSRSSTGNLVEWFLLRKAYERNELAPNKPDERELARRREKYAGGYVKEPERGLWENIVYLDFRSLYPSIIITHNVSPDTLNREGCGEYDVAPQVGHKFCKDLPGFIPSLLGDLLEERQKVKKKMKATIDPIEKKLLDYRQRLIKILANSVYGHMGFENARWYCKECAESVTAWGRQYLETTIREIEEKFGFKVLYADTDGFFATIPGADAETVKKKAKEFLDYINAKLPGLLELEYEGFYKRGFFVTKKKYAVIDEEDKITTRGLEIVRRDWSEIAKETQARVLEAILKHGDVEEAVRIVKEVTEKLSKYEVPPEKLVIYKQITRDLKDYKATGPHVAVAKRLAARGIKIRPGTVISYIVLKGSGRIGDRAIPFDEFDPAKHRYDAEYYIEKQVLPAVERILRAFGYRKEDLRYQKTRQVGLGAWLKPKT

KOD-H4 DNA polymerase [3] = target: T3, KOD-H4 DNA polymerase (UniProt D0VWU9 1-774, V93Q;I114T;D141A;E143A;S383K;K429G;F445L;A485L;Y493V;Y496H;Y497M;Y499F;A500E;R50 …); assay: X-ray crystallography; dGTP analogue dGMPNPP-type (alpha,beta-imido, NHdGTP); Mg2+ or Mg2+/Mn2+; FP: 1x ThermoPol (20 mM Tris-HCl, 10 mM (NH4)2SO4, 10 mM KCl, 2 mM MgSO4, 0.1% Triton X-100, pH 8.8), 25 C, 20 min, 5 nM labeled primer; details: protein: recombinant; 5' overhang 3 nt on template; 13-nt duplex
T3 sequence: T1 sequence

KOD-H4 DNA polymerase [4] = target: T3, KOD-H4 DNA polymerase; assay: fluorescence polarization; 2 mM MgSO4; apparent KD, Hill slope 1.67; FP: 1x ThermoPol (20 mM Tris-HCl, 10 mM (NH4)2SO4, 10 mM KCl, 2 mM MgSO4, 0.1% Triton X-100, pH 8.8), 25 C, 20 min, 5 nM labeled primer; details: protein: recombinant; label: 5'-6-FAM on primer; 5' overhang 6 nt on template; 10-nt duplex
[5] = target: T4, Tgo-H4 (RT-H4) DNA polymerase (UniProt P56689 1-773, V93Q;I114T;D141A;E143A;S383K;E429G;F445L;A485L;F493V;Y496H;Y497M;Y499F;A500E;K50 …); assay: fluorescence polarization; 2 mM MgSO4; apparent KD, Hill slope 1.66; FP: 1x ThermoPol (20 mM Tris-HCl, 10 mM (NH4)2SO4, 10 mM KCl, 2 mM MgSO4, 0.1% Triton X-100, pH 8.8), 25 C, 20 min, 5 nM labeled primer; details: protein: recombinant; label: 5'-6-FAM on primer; 5' overhang 6 nt on template; 10-nt duplex
T4 sequence: T2 sequence

## GACCACGGCC / AACTGTGGCCGTGGTC [DNA primer/HNA template (FP)]
[1]
  Kd: 80.2 nM
[2]
  Kd: 61.5 nM

B1: 13mer DNA primer/DNA template (crystal) (dsDNA)
DNA 1: GACCACGGCCACA
DNA 2: AACTGTGGCCGTGGTC
KOD-H4 DNA polymerase [3]
  binding result: binds

B2: DNA primer/DNA template (FP) (dsDNA)
DNA 1: GACCACGGCC
DNA 2: AACTGTGGCCGTGGTC
KOD-H4 DNA polymerase [4]
  Kd: 12.5 nM
[5]
  Kd: 10 nM
